Data on two molecules can be found in PMC4072576 (Molecular Biology of the Cell, 2014).

Broadly, the Kd is a measure of binding affinity in units of concentration.

The target in this experiment is F-actin (rabbit muscle actin) (rabbit, UniProt P68135 1-377). The experiment is described as follows: co-sedimentation.

B1: His-ctxI (recombinant N-terminal His-tagged cortexillin I) (natural protein)
chain: MAGKDWEIVQEKAFTAWVNSVLDKRGEKISDVGKDLSDGVKLIFFLELISSKKFNKKYDFEPKARINMIQNVALALKFLDEELKIKVQGIGSEDFVDNNKKMILGFLWTLYRKYRIAVISEGDKSSEEGLLLWCKNTTTGYDGVNITSFTKSFRDGLAFLALSHKFEPESFKFQEFEAMDPIARLNAAFDFAEKGLGVPKLLEAEEVMRGTTDERSLVLYTSLFFHAYRAKEEKARLESSKNEMANRLAGLENSLESEKVSREQLIKQKDQLNSLLASLESEGAEREKRLRELEAKLDETLKNLELEKLARMELEARLAKTEKDRAILELKLAEAIDEKSKLEQQIEATRIRGAAEAQGLGLLRKNLDTHVHDLLKWQKLTMENSSSSSIDDQIIVEVSGLPFGEQVKHLATKLEAENLAIMKLLNQKEDDLKAQKLKSSKSKK
Take B1: the Kd is roughly 200 nM and the “stoichiometry N” value was ~4 actin subunits per ctxI homodimer.

B2: His-ctxII (recombinant N-terminal His-tagged cortexillin II) (natural protein)
chain: MDLNKEWEKVQEMAFTSWVNSVLEKRGCDKISDVSTDLSDGVKLIYFLESVSGKKFPKKFDLEPKTRIMRVQNLHLAMLFIDEDLKIKVQGVAAEEFVDNNKKMILGFLWTLYRKYRISVINEGDKSSEEGLLAWCKKTTEGYNNVNITGFKSSFRDGHGFLALAHKYDPTVFKYDEYEGHDNIARLNAAFDFAEKGLGIPKLLEAESLSKGNVDERSIVLYTSLFFHAFRAKEEREALEASQNSLNNKLASLEQSLEGEKHSQEELVKQKKDLEDALNKIREQNDNRNSRITDLQSKIDDALRGLDDEKLAKLDLESRLAKCEKDKAILELKLAEILDEKDRLEKKIDEDKKRAEAERLGLGLIRQHLAAQFSDIHKWQSFLEHPETVPYTGTPVDLDSELSSLSFEEQAKKLASKLESENILIEKYLNGKEEAKAAAKK
Consider B2, for which the binding result is on record as “binds”.
